The series can be described thus: self-splicing fitness, log relative to wild type (ln ratio); higher = more splicing; Tetrahymena group I intron in knt gene, E. coli kanamycin selection, DiMSum; sequences stand for … in CUCUCU…GGAGGGAAAAGUUAUCAGGCAUGCACCUGGUAGCUAGUCUUUAAACCAAUAGAUUGCAUCGGUUUAAAAGGCAAGACCGUCAAAUUGCGGGAAAGGGGUCAACAGCCGUUCAGUACCAAGUCUCAGGGGAAACUUUGAGAUGGCCUUGCAAAGGGUAUGGUAAUAAGCUGACGGACAUGGUCCUAACCACGCAGCCAAGUCCUAAGUCAACAGAUCUUCUGUUGAUAUGGAUGCAGUUCACAGACUAAAUGUCGGUCGGGGAAGAUGUAUUCUUCUCAUAAGAUAUAGUCGGACCUCUCCUUAAUGGGAGCUAGCGGAUGAAGUGAUGCAACACUGGAGCCGCUGGGAACUAAUUUGUAUGCGAAAGUAUAUUGAUUAGUUUUGGAGUACUCGUGGUCG
In a few lines:
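Fitness was computed with DiMSum as the error-weighted combination of replicate fold changes, kanamycin versus none, each normalised to wild type. The library randomised all eight intron nucleotides of the P1ex region, with the intron placed in the knt kanamycin-resistance gene on pET-22b(+) in E. coli BL21(DE3). Six replicate transformations were grown overnight at 37°C or 30°C on LB agar with or without 25 μg/mL kanamycin, plus 100 μg/mL carbenicillin, 50 μM IPTG and 0.2% rhamnose. Pooled colonies were amplicon-sequenced on an Illumina HiSeq 2500.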

± gives the uncertainty stated by the source.

Data on 77 sequences can be found in the supplement of paper PMC7877785.

With UUGGAGCAAUAUUACGCGUC, the “self-splicing fitness (ln)” value by setting is: (30 °C) -4.81 ± 0.29; (37 °C) -2.77 ± 0.24.
For UUGGAGCAAUAUUACGCUGA, the “self-splicing fitness (ln)” value is, setting by setting: (30 °C) -1.98 ± 0.17; (37 °C) -1.5 ± 0.16.
In the case of UUGGAGCAAUAUUACGCUGG, the “self-splicing fitness (ln)” value is, setting by setting: (30 °C) -1.62 ± 0.34; (37 °C) -0.962 ± 0.32.
As to UUGGAGCAAUAUUACGGCCA, the “self-splicing fitness (ln)” value was -2.23 ± 0.19 (30 °C) and -0.299 ± 0.15 (37 °C).
Regarding UUGGAGCAAUAUUACGGGCG, the “self-splicing fitness (ln)” value runs as follows: (30 °C) -3.99 ± 0.39; (37 °C) -2.13 ± 0.31.
The matching figures for UUGGAGCAAUAUUACGGGGG: -2.12 ± 0.39 and -2.14 ± 0.5.
In the case of UUGGAGCAAUAUUACGGGUA, the “self-splicing fitness (ln)” value (37 °C) is -2.02 ± 0.23.
For the sequence UUGGAGCAAUAUUACGUCCA, the “self-splicing fitness (ln)” value was -2.2 ± 0.2 (30 °C) and -1.74 ± 0.23 (37 °C).
Turning to UUGGAGCAAUAUUACGUGAC, the “self-splicing fitness (ln)” value is -2.9 ± 0.41 (30 °C) and -0.119 ± 0.45 (37 °C).
For UUGGAGCAAUAUUACGUUUG, in that order: -4.04 ± 0.25 and -2.92 ± 0.28.
The matching figures for UUGUAGCAAUAUUACGAGCU: -1.88 ± 0.22 and -0.4 ± 0.2.
For UUGUAGCAAUAUUACGAGUG, in that order: -1.69 ± 0.14 and -0.408 ± 0.12.
Consider UUGUAGCAAUAUUACGAUGC, for which the “self-splicing fitness (ln)” value (37 °C) was -1.92 ± 0.43.
In the case of UUGUAGCAAUAUUACGCAAG, the “self-splicing fitness (ln)” value reads like this: (30 °C) -1.29 ± 0.17; (37 °C) -0.849 ± 0.2.
Take UUGUAGCAAUAUUACGCGAU: the “self-splicing fitness (ln)” value is, setting by setting: (30 °C) -3.54 ± 0.26; (37 °C) -2.51 ± 0.25.
The matching figures for UUGUAGCAAUAUUACGCGCG: -1.25 ± 0.12 and -0.356 ± 0.18.
On to UUGUAGCAAUAUUACGCGCU, for which the “self-splicing fitness (ln)” value was -2.05 ± 0.16 (30 °C) and -0.976 ± 0.11 (37 °C).
On to UUGUAGCAAUAUUACGCUCU, for which the “self-splicing fitness (ln)” value was -1.21 ± 0.2 (30 °C) and -1.29 ± 0.15 (37 °C).
As for UUGUAGCAAUAUUACGCUGU, the “self-splicing fitness (ln)” value reads like this: (30 °C) -3.02 ± 0.35; (37 °C) -2.49 ± 0.27.
On to UUGUAGCAAUAUUACGGCUC, for which the “self-splicing fitness (ln)” value was -1.79 ± 0.31 (30 °C) and 0.26 ± 0.24 (37 °C).
The matching figures for UUGUAGCAAUAUUACGGGAA: -2.13 ± 0.17 and -1.32 ± 0.16.
As for UUGUAGCAAUAUUACGGGAU, the “self-splicing fitness (ln)” value by setting is: (30 °C) -4.01 ± 0.29; (37 °C) -2.78 ± 0.26.
Turning to UUGUAGCAAUAUUACGGGUC, the “self-splicing fitness (ln)” value is, setting by setting: (30 °C) -3.03 ± 0.22; (37 °C) -2.83 ± 0.4.
Take UUGUAGCAAUAUUACGUAGG: the “self-splicing fitness (ln)” value (30 °C) was -2.12 ± 0.15 and the “self-splicing fitness (ln)” value (37 °C) was -1.04 ± 0.23.
For UUGUAGCAAUAUUACGUAUC, in that order: -4.12 ± 0.31 and -3.03 ± 0.31.
Consider UUGUAGCAAUAUUACGUAUU, for which the “self-splicing fitness (ln)” value was -3.29 ± 0.32 (30 °C) and -2.45 ± 0.3 (37 °C).
As to UUGUAGCAAUAUUACGUCAC, the “self-splicing fitness (ln)” value (30 °C) was -2.56 ± 0.39.
In the case of UUGUAGCAAUAUUACGUCAU, the “self-splicing fitness (ln)” value is -2.87 ± 0.18 (30 °C) and -1.63 ± 0.13 (37 °C).
Consider UUGUAGCAAUAUUACGUCGG, for which the “self-splicing fitness (ln)” value by setting is: (30 °C) -1.21 ± 0.094; (37 °C) -0.478 ± 0.093.
The matching figures for UUGUAGCAAUAUUACGUGAC: -2.34 ± 0.26 and -1.86 ± 0.33.
The matching figures for UUGUAGCAAUAUUACGUGUA: -1.34 ± 0.12 and -1.12 ± 0.15.
For UUGUAGCAAUAUUACGUGUU, the “self-splicing fitness (ln)” value by setting is: (30 °C) -2.7 ± 0.25; (37 °C) -2.5 ± 0.24.
Consider UUGUAGCAAUAUUACGUUAG, for which the “self-splicing fitness (ln)” value runs as follows: (30 °C) -2.36 ± 0.25; (37 °C) -1.28 ± 0.21.
Regarding UUGUAGCAAUAUUACGUUUA, the “self-splicing fitness (ln)” value is -1.36 ± 0.16 (30 °C) and -1.15 ± 0.17 (37 °C).
As for UUUAAGCAAUAUUACGAAAG, the “self-splicing fitness (ln)” value is, setting by setting: (30 °C) -3.48 ± 0.32; (37 °C) -1.54 ± 0.25.
The matching figures for UUUAAGCAAUAUUACGACGG: -0.639 ± 0.11 and 0.382 ± 0.13.
On to UUUAAGCAAUAUUACGACUG, for which the “self-splicing fitness (ln)” value was -0.203 ± 0.097 (30 °C) and 0.954 ± 0.12 (37 °C).
For UUUAAGCAAUAUUACGAGUG, in that order: -1.38 ± 0.14 and -0.204 ± 0.13.
UUUAAGCAAUAUUACGAUUA: the “self-splicing fitness (ln)” value is -0.637 ± 0.1 (30 °C) and -0.207 ± 0.11 (37 °C).
Take UUUAAGCAAUAUUACGCAGG: the “self-splicing fitness (ln)” value (30 °C) is -0.857 ± 0.14 and the “self-splicing fitness (ln)” value (37 °C) is -0.494 ± 0.2.
The matching figures for UUUAAGCAAUAUUACGCCAG: -1.08 ± 0.15 and -0.457 ± 0.2.
For UUUAAGCAAUAUUACGCCUA, in that order: -1.34 ± 0.21 and 0.351 ± 0.21.
For UUUAAGCAAUAUUACGCCUC, where the note is “37 °C”, the “self-splicing fitness (ln)” value is -0.852 ± 0.36.
On to UUUAAGCAAUAUUACGCGCA, for which the “self-splicing fitness (ln)” value was -0.212 ± 0.11 (30 °C) and 0.0171 ± 0.15 (37 °C).
For UUUAAGCAAUAUUACGCUAA, in that order: -2.34 ± 0.17 and -1.09 ± 0.19.
As to UUUAAGCAAUAUUACGCUAU, the “self-splicing fitness (ln)” value is -2.94 ± 0.27 (30 °C) and -0.849 ± 0.21 (37 °C).
With UUUAAGCAAUAUUACGGAGU, the “self-splicing fitness (ln)” value runs as follows: (30 °C) -3.04 ± 0.39; (37 °C) -1.18 ± 0.43.
For UUUAAGCAAUAUUACGGAUA, the “self-splicing fitness (ln)” value runs as follows: (30 °C) -1.12 ± 0.18; (37 °C) -1.13 ± 0.18.
The matching figures for UUUAAGCAAUAUUACGGCAG: -0.39 ± 0.098 and 0.179 ± 0.15.
The matching figures for UUUAAGCAAUAUUACGGCCU: -1.69 ± 0.14 and -0.999 ± 0.17.
For UUUAAGCAAUAUUACGGUCG, in that order: -0.794 ± 0.067 and -0.269 ± 0.089.
In the case of UUUAAGCAAUAUUACGUAUA, the “self-splicing fitness (ln)” value reads like this: (30 °C) -1.95 ± 0.12; (37 °C) -1.54 ± 0.14.
The matching figures for UUUAAGCAAUAUUACGUUUA: -2.69 ± 0.17 and -2.1 ± 0.11.
With UUUCAGCAAUAUUACGAAGC, the “self-splicing fitness (ln)” value (30 °C) was -0.935 ± 0.36.
Regarding UUUCAGCAAUAUUACGACUC, the “self-splicing fitness (ln)” value (30 °C) was -2.82 ± 0.18 and the “self-splicing fitness (ln)” value (37 °C) was -0.13 ± 0.14.
As to UUUCAGCAAUAUUACGAGCG, the “self-splicing fitness (ln)” value was -0.768 ± 0.09 (30 °C) and -0.289 ± 0.11 (37 °C).
Consider UUUCAGCAAUAUUACGAGUC, for which the “self-splicing fitness (ln)” value runs as follows: (30 °C) -3.12 ± 0.29; (37 °C) -1.97 ± 0.37.
The matching figures for UUUCAGCAAUAUUACGAUUU: -1.34 ± 0.098 and -0.0319 ± 0.12.
For the sequence UUUCAGCAAUAUUACGCGGU, the “self-splicing fitness (ln)” value by setting is: (30 °C) -3.46 ± 0.25; (37 °C) -1.92 ± 0.2.
The matching figures for UUUCAGCAAUAUUACGCGUC: -3.56 ± 0.15 and -2.01 ± 0.14.
For UUUCAGCAAUAUUACGCGUU, in that order: -2.13 ± 0.21 and -0.852 ± 0.17.
The matching figures for UUUCAGCAAUAUUACGGCCA: -1.3 ± 0.19 and -0.656 ± 0.11.
Consider UUUCAGCAAUAUUACGGCUU, for which the “self-splicing fitness (ln)” value by setting is: (30 °C) -1.39 ± 0.13; (37 °C) -0.047 ± 0.13.
For UUUCAGCAAUAUUACGGUUG, in that order: -1.62 ± 0.091 and -1.1 ± 0.12.
As to UUUCAGCAAUAUUACGUGUG, the “self-splicing fitness (ln)” value is, setting by setting: (30 °C) -0.986 ± 0.067; (37 °C) -0.142 ± 0.075.
For the sequence UUUCAGCAAUAUUACGUUAC, the “self-splicing fitness (ln)” value was -4.82 ± 0.28 (30 °C) and -2.66 ± 0.16 (37 °C).
For UUUCAGCAAUAUUACGUUCA, in that order: -1.04 ± 0.13 and -0.407 ± 0.15.
For UUUCAGCAAUAUUACGUUGG, in that order: -4.07 ± 0.18 and -2.52 ± 0.2.
For UUUCAGCAAUAUUACGUUUG, in that order: -1.91 ± 0.086 and -1.12 ± 0.1.
For the sequence UUUGAGCAAUAUUACGAGAG, the “self-splicing fitness (ln)” value (30 °C) is -2.2 ± 0.32.
On to UUUGAGCAAUAUUACGAGGU, for which the “self-splicing fitness (ln)” value (30 °C) was -4.2 ± 0.46 and the “self-splicing fitness (ln)” value (37 °C) is -3.66 ± 0.46.
As for UUUGAGCAAUAUUACGAGUU, where the note is “37 °C”, the “self-splicing fitness (ln)” value is -1.87 ± 0.42.
Turning to UUUGAGCAAUAUUACGAUCA, the “self-splicing fitness (ln)” value is, setting by setting: (30 °C) -2.12 ± 0.24; (37 °C) -1.28 ± 0.25.
Regarding UUUGAGCAAUAUUACGCAAG, the “self-splicing fitness (ln)” value (30 °C) is -3.09 ± 0.34 and the “self-splicing fitness (ln)” value (37 °C) was -1.51 ± 0.23.
For UUUGAGCAAUAUUACGCGUC, in that order: -2.03 ± 0.22 and -2.49 ± 0.26.
On to UUUGAGCAAUAUUACGCGUG, for which the “self-splicing fitness (ln)” value was -2.33 ± 0.14 (30 °C) and -0.742 ± 0.12 (37 °C).
Consider UUUGAGCAAUAUUACGGAAG, for which the “self-splicing fitness (ln)” value (37 °C) was -1.41 ± 0.43.
